T1: Mcm5, subunit of the purified CMG (yeast (strains based on W303), UniProt P29496 1-775)
T1 construct: Mcm5, subunit of yeast CMG; The Mcm5 chain of m4; source: yeast overexpression strain yJCZ3, purified as part of CMG
T1 sequence: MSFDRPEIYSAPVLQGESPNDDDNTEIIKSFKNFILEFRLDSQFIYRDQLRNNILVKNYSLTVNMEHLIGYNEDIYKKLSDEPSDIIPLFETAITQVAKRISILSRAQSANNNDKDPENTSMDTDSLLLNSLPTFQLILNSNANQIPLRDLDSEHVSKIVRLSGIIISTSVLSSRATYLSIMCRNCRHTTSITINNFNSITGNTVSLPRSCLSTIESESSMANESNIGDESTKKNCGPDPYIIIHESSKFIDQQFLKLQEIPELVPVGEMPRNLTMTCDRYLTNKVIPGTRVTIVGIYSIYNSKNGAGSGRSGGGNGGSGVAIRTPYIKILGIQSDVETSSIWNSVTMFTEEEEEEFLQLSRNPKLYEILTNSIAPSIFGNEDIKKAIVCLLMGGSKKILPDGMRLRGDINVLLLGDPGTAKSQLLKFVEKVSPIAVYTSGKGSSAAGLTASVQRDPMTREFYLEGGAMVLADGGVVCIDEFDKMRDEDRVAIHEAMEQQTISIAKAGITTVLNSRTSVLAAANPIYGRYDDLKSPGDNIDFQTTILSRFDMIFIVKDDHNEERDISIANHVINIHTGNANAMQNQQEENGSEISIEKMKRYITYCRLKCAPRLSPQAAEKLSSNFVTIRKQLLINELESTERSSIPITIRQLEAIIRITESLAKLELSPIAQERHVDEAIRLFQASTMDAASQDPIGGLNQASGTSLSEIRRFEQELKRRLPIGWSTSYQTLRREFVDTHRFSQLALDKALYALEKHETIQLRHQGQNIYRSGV

B1: Psf1, GINS subunit of the purified CMG (natural protein, yeast (strains based on W303))
chain: MYGDLGNKLVLEAKRTKQLYARSNQDVNLPMYHEDIIRNILKEVSNLRKNTEYLKEQQQLGMLDDKVAKCQYFVTLLCMERNKRCLLAYQRLRTDILDSMAWNNNGLDLMSSITFSQQDTNNLSHQEQEYLKEYCDLITDLKSGDLVDIDLSGSLVPPSDVFIDVRVLKDAGEIQTEYGVFNLIKDSQFFVRQSDVERLIQQGYLQKI
notes: Psf1, GINS subunit of yeast CMG; The Psf1 chain of m4; source: yeast overexpression strain yJCZ3, purified as part of CMG
B2: Dpb2, subunit of the CBP-tagged Pol epsilon complexes (deltacat and exo-) (natural protein, yeast (strains based on W303), UniProt P24482 1-689, looked up)
chain: MFGSGNVLPVKIQPPLLRPLAYRVLSRKYGLSIKSDGLSALAEFVGTNIGANWRQGPATIKFLEQFAAVWKQQERGLFIDQSGVKEVIQEMKEREKVEWSHEHPIQHEENILGRTDDDENNSDDEMPIAADSSLQNVSLSSPMRQPTERDEYKQPFKPESSKALDWRDYFKVINASQQQRFSYNPHKMQFIFVPNKKQNGLGGIAGFLPDIEDKVQMFLTRYYLTNDRVMRNENFQNSDMFNPLSSMVSLQNELSNTNRQQQSSSMSITPIKNLLGRDAQNFLLLGLLNKNFKGNWSLEDPSGSVEIDISQTIPTQGHYYVPGCMVLVEGIYYSVGNKFHVTSMTLPPGERREITLETIGNLDLLGIHGISNNNFIARLDKDLKIRLHLLEKELTDHKFVILGANLFLDDLKIMTALSKILQKLNDDPPTLLIWQGSFTSVPVFASMSSRNISSSTQFKNNFDALATLLSRFDNLTENTTMIFIPGPNDLWGSMVSLGASGTLPQDPIPSAFTKKINKVCKNVVWSSNPTRIAYLSQEIVIFRDDLSGRFKRHRLEFPFNESEDVYTENDNMMSKDTDIVPIDELVKEPDQLPQKVQETRKLVKTILDQGHLSPFLDSLRPISWDLDHTLTLCPIPSTMVLCDTTSAQFDLTYNGCKVINPGSFIHNRRARYMEYVPSSKKTIQEEIYI
notes: Dpb2, second largest subunit of yeast Pol epsilon; The complexes carry a CBP tag; The N-terminal domain is not seen in the deltacat map; also called NTD-Dpb2; CTD-Dpb2; source: yeast overexpression strain, galactose-induced; purified as part of Pol epsilon deltacat or exo- (calmodulin beads, Mono Q, gel filtration)

What all share (assay): cryo-EM structure; 250 nM CMG bound to a desthiobiotin-labelled pre-formed DNA fork on streptavidin beads with 2 mM ATPgammaS, then 80 nM Pol epsilon exo-, 30 °C, eluted with biotin; no crosslinker; 4.9 Å
Holding throughout (conditions): both partners purified

The target in assay [1] is B2.
For assay [2], the target named is T1, Mcm5, subunit of the purified CMG.
Assay [3] has as its target T2, Mcm3, subunit of the purified CMG (yeast (strains based on W303), UniProt P24279 1-971).
T2 construct: Mcm3, subunit of yeast CMG; The Mcm3 chain of m4; source: yeast overexpression strain yJCZ3, purified as part of CMG

T2 sequence (P24279 whole entry): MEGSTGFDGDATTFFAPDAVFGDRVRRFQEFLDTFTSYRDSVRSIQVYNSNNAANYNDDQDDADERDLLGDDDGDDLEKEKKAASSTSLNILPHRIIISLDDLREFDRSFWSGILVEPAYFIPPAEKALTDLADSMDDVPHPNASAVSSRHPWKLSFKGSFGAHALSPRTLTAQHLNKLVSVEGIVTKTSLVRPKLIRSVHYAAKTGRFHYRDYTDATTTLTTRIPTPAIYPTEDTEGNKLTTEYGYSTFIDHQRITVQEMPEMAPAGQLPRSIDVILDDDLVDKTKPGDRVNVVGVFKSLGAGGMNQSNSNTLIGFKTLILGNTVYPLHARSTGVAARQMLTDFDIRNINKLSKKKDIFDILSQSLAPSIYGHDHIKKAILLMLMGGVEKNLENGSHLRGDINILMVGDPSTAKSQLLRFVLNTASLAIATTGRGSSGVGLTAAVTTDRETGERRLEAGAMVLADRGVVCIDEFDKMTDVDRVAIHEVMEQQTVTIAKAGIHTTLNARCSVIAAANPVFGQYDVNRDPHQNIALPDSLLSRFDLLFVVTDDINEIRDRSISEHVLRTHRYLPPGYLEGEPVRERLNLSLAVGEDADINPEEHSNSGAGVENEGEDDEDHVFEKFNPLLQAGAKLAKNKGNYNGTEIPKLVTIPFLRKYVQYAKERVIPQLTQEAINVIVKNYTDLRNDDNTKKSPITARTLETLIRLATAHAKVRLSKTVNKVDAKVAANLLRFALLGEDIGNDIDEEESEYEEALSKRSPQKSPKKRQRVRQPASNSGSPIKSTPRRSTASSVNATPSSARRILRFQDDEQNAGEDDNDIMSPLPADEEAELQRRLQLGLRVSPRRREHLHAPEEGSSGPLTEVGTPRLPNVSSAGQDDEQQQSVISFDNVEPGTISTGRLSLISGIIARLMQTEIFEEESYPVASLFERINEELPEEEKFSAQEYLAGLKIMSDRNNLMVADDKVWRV

For the molecule B1, the binding result in assay [1] was “binds”.

Consider B2, for which the binding result in assay [2] and in assay [3] was “binds” each time.

The values are drawn from PMC6265327, “Structure of DNA-CMG-Pol epsilon elucidates the roles of the non-catalytic polymerase modules in the eukaryotic replisome” (Nature Communications, 2018).
